Results taken from PMC6315291.

Target: Recombinant human Pentraxin 3 (PTX3) (human) (UniProt P26022)
Test: ELISA

Sequence of UniProt P26022 (P26022 18-381): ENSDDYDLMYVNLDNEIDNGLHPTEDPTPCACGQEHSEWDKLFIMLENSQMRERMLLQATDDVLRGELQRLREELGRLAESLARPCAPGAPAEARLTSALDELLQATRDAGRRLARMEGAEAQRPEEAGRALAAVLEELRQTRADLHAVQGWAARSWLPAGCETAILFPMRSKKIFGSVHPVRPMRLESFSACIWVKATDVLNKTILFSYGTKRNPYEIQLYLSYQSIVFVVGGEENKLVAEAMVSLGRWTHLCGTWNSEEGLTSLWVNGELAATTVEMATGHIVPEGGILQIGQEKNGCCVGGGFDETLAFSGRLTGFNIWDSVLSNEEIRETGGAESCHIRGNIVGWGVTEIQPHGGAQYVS

Substance: Human TSP1 construct E123CaG-1 (type II repeats plus type III repeats and globular C-terminus) (domain or fragment)
- increase of OD 450 nm over control buffer (% fold increase): 64
